Test results published in patent US20230265164A1 (MIT, published 2023).
One block for each binder: values may come before it.

Columns and labels:
CCL25 = biological target: T1, CCL25 (UniProt O15444 24-150, limits assumed); assay: MicroScale Thermophoresis; 5 nM NT647-labeled receptor-Fc against a ligand gradient, 25 C
T1 sequence (looked up): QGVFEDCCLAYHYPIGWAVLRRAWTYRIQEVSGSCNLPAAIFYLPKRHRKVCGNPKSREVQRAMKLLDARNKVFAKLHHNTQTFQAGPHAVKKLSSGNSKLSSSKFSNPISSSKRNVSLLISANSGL
Protocol: (§1) MicroScale Thermophoresis (MST) is an optical method detecting changes in thermophoretic movement and TRIC of the protein-attached fluorophore upon ligand binding. Active labelled proteins contribute to the thermophoresis signal upon ligand binding. […] Herein ligand binding experiments were carried out with 5 nM NT647-labeled protein in 1×PBS, 10 mM DTT buffer with different concentration of arginine, against a gradient of respective ligands on a Monolith NT.115 pico instrument at 25° C. Synthesized receptors were labeled with Monolith NT™ 2nd generation protein labeling kit RED-NHS (NanoTemper Technologies) so as to obtain unique fluorescent signals. MST time traces were recorded and analyzed to obtain the highest possible signal-to-noise levels and amplitudes, >5 Fnorm units. The recorded fluorescence was plotted against the concentration of ligand, and curve fitting was performed using the Kd fit formula derived from the law of mass action. For clarity, binding graphs of each independent experiment were normalized to the fraction bound (0=unbound, 1=bound). MST experiments were performed in the Center for Macromolecular Interactions at Harvard Medical School.

IL8 = biological target: T2, IL8 (UniProt P10145 28-99, limits assumed); assay: as above
T2 sequence (looked up): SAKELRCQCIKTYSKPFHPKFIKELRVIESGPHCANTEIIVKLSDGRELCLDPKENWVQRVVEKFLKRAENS
Protocol: as §1

- Kd (CCL25): 0.0372 µM
B1: CCR9^QTY-Fc (Fc fusion)
chain: MTPTDFTSPIPNMADDYGSESTSSMEDYVNFNFTDFYCEKNNVRQFASHYQPPQYWQTYTTGAQGNSQTTQTYWYCTRVKTMTDMYQQNQATADQQYQTTQPYWATAAADQWKFQTFMCKTTNSMYKMNYYSCTQQTMCTSTDRYTATAQAMRAHTWREKRQQYSKMTCYTTWTQAAAQCTPETQYSQIKEESGIAICTMVYPSDESTKQKSATQTQKTTQGYYQPYTTMACCYTTTTHTQTQAKKSSKHKAQKTTTTTQTTYTQSQYPYNCTQQTQTTDAYAMFISNCATSTNTDTCYQTTQTTAYYHSCQNPTQYTYTGERFRRDLVKTLKNLGCISQAQWVSFTRREGSLKLSSMLLETTSGALSLTETSQVAPAHHHHHHHHHHTETSQVAPAHHHHHHHHHHGSKLVDPRGPTIKPCPPCKCPAPNLLGGPSVFIFPPKIKDVLMISLSPIVTCVVVDVSEDDPDVQISWFVNNVEVHTAQTQTHREDYNSTLRVVSALPIQHQDWMSGKEFKCKVNNKDLPAPIERTISKPKGSVRAPQVYVLPPPEEEMTKKQVTLTCMVTDFMPEDIYVEWTNNGKTELNYKNTEPVLDSDGSYFMYSKLRVEKKNWVERNSYSCSVVHEGLHNHHTTKSFSRTPGK
modifications: NT647 (RED-NHS) fluorescent dye on lysines/N-terminus in the MST assay; positions not given.

- Kd (IL8): 0.0603 µM
B2: CXCR2^QTY-Fc (Fc fusion)
chain: MEDFNMESDSFEDFWKGEDLSNYSYSSTLPPFLLDAAPCEPESLEINKYYTTTTYAQTYQQSQQGNSQTMQTTQYSRVGRSVTDTYQQNQAQADQQYAQTQPTWAASKVNGWIFGTFLCKTTSQQKETNYYSGTQQQACTSTDRYLAIVHATRTLTQKRYLVKYTCQSTWGQSQQQAQPTQQYRRTVYSSNVSPACYEDMGNNTANWRMQQRTQPQSYGYTQPQQTMQYCYGFTLRTLFKAHMGQKHRAMRTTYATTQTYQQCWQPYNQTQQADTLMRTQVIQETCERRNHIDRAQDATETQGTQHSCQNPQTYAYTGQKFRHGLLKILAIHGLISKDSLPKDSRPSFVGSSSGHTSTTLTETSQVAPAHHHHHHHHHHGSKLVDPRGPTIKPCPPCKCPAPNLLGGPSVFIFPPKIKDVLMISLSPIVTCVVVDVSEDDPDVQISWFVNNVEVHTAQTQTHREDYNSTLRVVSALPIQHQDWMSGKEFKCKVNNKDLPAPIERTISKPKGSVRAPQVYVLPPPEEEMTKKQVTLTCMVTDFMPEDIYVEWTNNGKTELNYKNTEPVLDSDGSYFMYSKLRVEKKNWVERNSYSCSVVHEGLHNHHTTKSFSRTPGK
modifications: NT647 (RED-NHS) fluorescent dye on lysines/N-terminus in the MST assay; positions not given.
notes: also called CXCR29QTY-Fc
